Publication PMC8861134

Key:
[1] = target: Glucose-6-phosphate dehydrogenase K403Q (human) (UniProt P11413); experiment: SEC; analytical SEC, Superdex 75 10/300 GL, 0.4 ml/min; 500 nM G6PD incubated 30 min at 23 °C in 80 mM sodium phosphate pH 8.0, with or without 10 μM NADP+; percentages in monomer equivalents; step: monomers to dimer
[2] = target: Glucose-6-phosphate dehydrogenase E347A, tetramer-impaired synthetic mutant (human) (UniProt P11413); experiment: native gel or EMSA; partial native PAGE (P-Native PAGE): 850 nM protein in 50 mM Tris pH 7.4, 150 mM NaCl, 23 °C, 30 min; sample buffer without SDS and BME, not boiled, run on SDS-PAGE, Western blot, quantified with Fiji; step: dimer to monomers

percent dimer [1] | percent in monomeric form [2] | Substance
74% | – | Glucose-6-phosphate dehydrogenase K403Q (from UniProt P11413 1-515) (enzyme)
– | 80% | Glucose-6-phosphate dehydrogenase E347A, tetramer-impaired synthetic mutant (from UniProt P11413 1-515) (enzyme)
